Experimental data reported in publication PMC4831024 (Nature Communications, 2016).

Molecular target: T1, Ku heterodimer (Ku70/Ku80), full length, recombinant human (human, UniProt P12956 1-609; P13010 1-732)
T1 construct: Ku70, human; Ku80, human; also called recombinant Ku; full-length Ku heterodimer; source: insect cells, baculovirus expression system, purified (immobilized metal-chelate chromatography, gel filtration)
Assay: pull-down; 50 nM Strep-tagged WRN protein immobilised on Streptavidin Mag Sepharose beads, 50 nM recombinant untagged Ku, 1 h at 4 °C; 20 mM Hepes pH 7.5, 150 mM NaCl, 5% glycerol, 0.5 mM TCEP, 0.05% IGEPAL-CA640; SDS–PAGE, Coomassie/Instant Blue
Settings: both partners purified

T1 sequence (P12956 whole entry, chain 1 of 2): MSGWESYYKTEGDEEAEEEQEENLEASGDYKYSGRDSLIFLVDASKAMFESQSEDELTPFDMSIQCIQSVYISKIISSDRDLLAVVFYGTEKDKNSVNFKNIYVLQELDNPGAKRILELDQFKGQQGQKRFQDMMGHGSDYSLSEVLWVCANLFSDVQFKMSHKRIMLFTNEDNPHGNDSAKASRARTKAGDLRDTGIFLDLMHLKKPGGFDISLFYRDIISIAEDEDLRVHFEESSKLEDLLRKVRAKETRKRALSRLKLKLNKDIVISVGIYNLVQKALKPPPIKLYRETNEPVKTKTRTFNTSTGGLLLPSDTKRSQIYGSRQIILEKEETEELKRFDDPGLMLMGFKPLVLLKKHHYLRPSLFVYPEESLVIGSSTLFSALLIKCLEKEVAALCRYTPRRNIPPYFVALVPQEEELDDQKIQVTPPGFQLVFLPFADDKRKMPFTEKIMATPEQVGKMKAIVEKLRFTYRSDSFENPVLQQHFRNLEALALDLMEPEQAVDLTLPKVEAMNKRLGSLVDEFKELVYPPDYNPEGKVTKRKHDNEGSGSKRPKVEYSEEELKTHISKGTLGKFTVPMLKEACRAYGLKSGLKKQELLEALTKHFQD
T1 sequence (P13010 whole entry, chain 2 of 2): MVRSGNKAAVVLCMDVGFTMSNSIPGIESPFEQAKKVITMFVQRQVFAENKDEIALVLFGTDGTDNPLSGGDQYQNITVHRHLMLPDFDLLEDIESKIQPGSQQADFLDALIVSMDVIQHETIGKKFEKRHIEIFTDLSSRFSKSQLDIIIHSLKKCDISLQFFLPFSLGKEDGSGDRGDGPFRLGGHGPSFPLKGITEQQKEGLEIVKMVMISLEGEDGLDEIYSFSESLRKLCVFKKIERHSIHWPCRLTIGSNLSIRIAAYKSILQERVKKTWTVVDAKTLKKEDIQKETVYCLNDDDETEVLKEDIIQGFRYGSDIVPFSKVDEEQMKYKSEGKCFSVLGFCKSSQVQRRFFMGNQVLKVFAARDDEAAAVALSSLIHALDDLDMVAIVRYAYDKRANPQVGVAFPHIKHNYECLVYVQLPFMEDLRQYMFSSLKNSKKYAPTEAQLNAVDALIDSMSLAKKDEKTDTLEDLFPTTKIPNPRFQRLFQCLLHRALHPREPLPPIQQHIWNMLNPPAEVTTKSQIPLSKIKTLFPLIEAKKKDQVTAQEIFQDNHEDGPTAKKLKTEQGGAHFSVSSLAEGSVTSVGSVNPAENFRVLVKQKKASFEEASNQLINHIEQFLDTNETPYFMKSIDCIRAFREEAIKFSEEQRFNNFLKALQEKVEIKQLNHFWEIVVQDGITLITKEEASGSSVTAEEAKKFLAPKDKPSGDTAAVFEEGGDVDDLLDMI

B1: Strep-tagged WRN^W18G (natural protein)
chain: not shown
notes: Werner syndrome protein (WRN), human, full length, W18G; source: insect cells, baculovirus expression system, purified (Strep-Tactin Superflow Plus cartridge, Superose 6 gel filtration)
B1: binds.
